Reference: US5981720
No end group written: not given here. *: point of attachment. βGlcNAc = CC(=O)N[C@@H]1[C@@H](O)[C@H](O)[C@@H](CO)O[C@H]1*

Key:
[1] = target: yeast alpha-glucosidase (yeast)
[2] = target: yeast alpha-glucosidase (yeast); remark: listed apart in the source
[3] = target: yeast alpha-glucosidase (yeast); remark: listed apart in the source
[4] = target: yeast alpha-glucosidase (yeast); conditions: scale: decrease of umole of glucose production from maltose per microgram of protein per hour

GGN(βGlcNAc)K [synthetic glycopeptide Gylcyl-glycl-(NB-2-(acetylamino)-deoxy-2-B-pyranosyl)-asparaginyl-lysine]
inhibitory effect on alpha-glucosidase activity [1]: 90%

GGNK (acetylglucosamine cleaved off the asparagine with N-acetylglucosaminidase) [glycopeptide treated with N-acetylglucosaminidase]
inhibitory effect on alpha-glucosidase activity (% of inhibition lost) [2]: 20

B1: PNGase treated CON-1 (protein)
chain: SPPGKPQGPPPQGGNQPQGPPPPPGKPQGPPPQGGNKPQGPPPPGKPQGPPPQGDNKSQSARSPPGKPQGPPPQGGNQPQGPPPPPGKPQGPPPQGGNKSQGPPPPGKPQGPPPQGGSKSRSSR
modifications: carbohydrate moiety removed with PNGase
alpha-glucosidase inhibition assay [3]: 50 percent

B2: CON-1 (protein)
chain: SPPGKPQGPPPQGGNQPQGPPPPPGKPQGPPPQGGNKPQGPPPPGKPQGPPPQGDNKSQSARSPPGKPQGPPPQGGNQPQGPPPPPGKPQGPPPQGGNKSQGPPPPGKPQGPPPQGGSKSRSSR
modifications: glycoprotein; glycosylation occurs at one N-linked site (acetylglucosamine on asparagine of glycine-glycine-asparagine-lysine)
Specific Inhibitory Activity [4]: 2810

GGN(βGlcNAc)K(pyridoxal 5‑phosphate) [pyridoxal 5-phosphate modified glycopeptide]
inhibitory effect on alpha-glucosidase activity (% increase in inhibitory effect) [2]: 50
